Key:
[1] = tested on: permeabilized cardiomyocytes; test: Ca2+ sparks and SR Ca2+ content in permeabilized myocytes; type: cell-based, rat; details: 5 μmol/L DPc10 with 1 μmol/L CaM or 100 nmol/L FKBP12.6
Procedure: Myocytes were permeabilized with saponin (50μg/mL) for 60 seconds and placed in internal solution composed of EGTA 0.5 mmol/L; HEPES 10 mmol/L; Kaspartate 120 mmol/L; ATP 5 mmol/L; free MgCl2 1 mmol/L, reduced glutathione 10 mmol/L; and free [Ca2+] 50nmol/L (calculated using MaxChelator), creatine phosphokinase 5 U/mL, phosphocreatine 10 mmol/L, dextran 4% Fluo-4 0.025 mmol/L, pH 7.2. Ca2+sparks were recorded by a laser scanning confocal microscope (RADIANCE2000™ MP, Bio-Rad, UK) as previously described (Li et al., Circ Res, 2002; 90:309-316). Fluo-4 was excited at 488 nm and emission was recorded using 500/530 nm bandpass filter. To assess SR Ca2+content, caffeine (15 mmol/L) was rapidly perfused. Ca2+spark were analyzed as using SparkMaster (Picht et al., Am J Physiol Cell Physiol, 2007; 293:C1073-C1081).
Next, we asked whether RyR2 is activated by DPc10 and whether FKBP12.6 or CaM can prevent this. We assessed Ca^2+ sparks in permeabilized myocytes perfused with internal solution containing 50 nmol/L free Ca^2+ plus 1 μmol/L autocamtide-2-related inhibitory peptide (to inhibit CaMKII activity). Line-scan images were recorded after 3-hour incubations under control conditions and in the presence of 5 μmol/L DPc10, with or without 1 μmol/L CaM or 100 nmol/L FKBP12.6 (FIG. 14D).

[2] = target: T1, RyR2 (Rattus norvegicus, UniProt B0LPN4); test: F-DPc10 wash-in and washout kinetics at the myocyte Z-line; type: binding; parameters: endogenous in cells; host or cells: saponin-permeabilized adult rat ventricular myocytes
Procedure: To characterize DPc10-binding kinetics at Z-lines, we performed F-DPc10 wash-in (500 nmol/L) and washout experiments in permeabilized myocytes (FIG. 10A). Association (τwash-in=79.0±3.2 minutes) and dissociation (τwashout=149.8±4.4 minutes) were very slow compared with similar FKBP12.6 measurements (Guo et al., Circ Res, 2010; 106:1743-1752). From the wash-in/washout measurements, we calculated the association and dissociation rates constants, kon and koff, respectively, according to the following equation: kwash-in=[F-DPc10]kon+koff where kwashout≈koff and k=1/τ (s^−1). Accordingly, kon=202±20 (L mol^−1 s^−1) and koff=0.11±0.01 (10^−3 s^−1). […] We repeated this kinetic analysis using FRET between FKBP12.6 and DPc10, thus assessing the RyR2-specific DPc10 binding (FIG. 11A AND 11B). […] Based on these kinetic and affinity analyses, we infer that most of the Z-line-specific DPc10 binding is to RyR2. This is also consistent with Bmax, which would imply ≈1 DPc10 per RyR2 monomer.
We were intrigued by the slow kwash-in and conducted measurements to further understand the basis of this slow association. We tested the hypothesis that at resting [Ca^2+]i, DPc10 access to its RyR2 binding site is sterically hindered. If the N-terminal and central domains are tightly zipped to each other, then this interaction may occlude the DPc10-binding site on the RyR2, thus limiting the kon for DPc10. Alternatively, a limiting factor may be the rate at which DPc10 adopts a conformation that can bind to RyR2. To discern between these mechanisms, we determined the effect of [F-DPc10] on τwash-in. If the small fraction of DPc10 in the right conformation limits binding rate, then τwash-in should be faster at higher [F-DPc10], according to Equation. […] Instead, a 10-fold increase in [F-DPc10] had no significant effect on the τwash-in, although it did increase Bmax (FIG. 10B). The same was seen when using FKBP12.6-DPc10 FRET to assess τwash-in with 0.5 vs 5 μmol/L HF647-DPc10 (FIG. 12A AND 12B).
In our working model, under resting conditions, the RyR2 closed state may be stabilized by the interaction between the N-terminal and central domain in the zipped state. We hypothesized that conditions that promote RyR2 opening might enhance the rate of unzipping and accelerate τwash-in for F-DPc10. To test this, we first monitored F-DPc10 wash-in at elevated Ca^2+ (500 nmol/L). However, the 13% faster mean τwash-in was not significant (FIG. 13A). […] Thus, we preincubated myocytes with ryanodine (100 μmol/L) plus caffeine ([…]), which are known to favor long RyR2 openings and were reported to cause RyR2 domain unzipping in HEK293 cells (Liu et al., J Cell Sci, 2010; 123: 1775-1784). Ryanodine+caffeine produced a 21% faster τwash-in (P=0.002; FIG. 13B). However, the most significant effect was seen after presaturating RyR2 with NF-DPc10 (and then NF-DPc10 washout with F-DPc10 present; FIG. 13A). […] Assuming that koff of NF-DPc10 is the same as for F-DPc10 and using Equation, the kon is increased by 3.2-fold by unzipping as a result of prebinding of NF-DPc10 to the RyR2. Our working hypothesis is that the RyR2 open state may increase the probability of an RyR2 shifting to the unzipped state and may allow faster F-DPc10 wash-in. It also seems that the RyR2 open state (favored by caffeine-ryanodine) differs from the unzipped state (bound with DPc10).
Both FKBP12.6 and CaM bind to the RyR2 and can reduce channel opening, which might alter DPc10 binding. […] Neither CaM nor FKBP12.6 pretreatment altered M-line F-DPc10 fluorescence (FIG. 15). […] We infer that CaM stabilizes the domain interaction between N-terminal and central domains in the zipped state and thereby may reduce DPc10 access to its binding site. To test for direct CaM-DPc10 interaction, we performed control FRET measurements between donor-labeled CaM and acceptor-labeled DPc10 in solution in the absence of RyR. The maximal FRET efficiency (<1%) ruled out direct CaM-DPc10 interaction. […]
Target sequence in this assay (B0LPN4 whole entry): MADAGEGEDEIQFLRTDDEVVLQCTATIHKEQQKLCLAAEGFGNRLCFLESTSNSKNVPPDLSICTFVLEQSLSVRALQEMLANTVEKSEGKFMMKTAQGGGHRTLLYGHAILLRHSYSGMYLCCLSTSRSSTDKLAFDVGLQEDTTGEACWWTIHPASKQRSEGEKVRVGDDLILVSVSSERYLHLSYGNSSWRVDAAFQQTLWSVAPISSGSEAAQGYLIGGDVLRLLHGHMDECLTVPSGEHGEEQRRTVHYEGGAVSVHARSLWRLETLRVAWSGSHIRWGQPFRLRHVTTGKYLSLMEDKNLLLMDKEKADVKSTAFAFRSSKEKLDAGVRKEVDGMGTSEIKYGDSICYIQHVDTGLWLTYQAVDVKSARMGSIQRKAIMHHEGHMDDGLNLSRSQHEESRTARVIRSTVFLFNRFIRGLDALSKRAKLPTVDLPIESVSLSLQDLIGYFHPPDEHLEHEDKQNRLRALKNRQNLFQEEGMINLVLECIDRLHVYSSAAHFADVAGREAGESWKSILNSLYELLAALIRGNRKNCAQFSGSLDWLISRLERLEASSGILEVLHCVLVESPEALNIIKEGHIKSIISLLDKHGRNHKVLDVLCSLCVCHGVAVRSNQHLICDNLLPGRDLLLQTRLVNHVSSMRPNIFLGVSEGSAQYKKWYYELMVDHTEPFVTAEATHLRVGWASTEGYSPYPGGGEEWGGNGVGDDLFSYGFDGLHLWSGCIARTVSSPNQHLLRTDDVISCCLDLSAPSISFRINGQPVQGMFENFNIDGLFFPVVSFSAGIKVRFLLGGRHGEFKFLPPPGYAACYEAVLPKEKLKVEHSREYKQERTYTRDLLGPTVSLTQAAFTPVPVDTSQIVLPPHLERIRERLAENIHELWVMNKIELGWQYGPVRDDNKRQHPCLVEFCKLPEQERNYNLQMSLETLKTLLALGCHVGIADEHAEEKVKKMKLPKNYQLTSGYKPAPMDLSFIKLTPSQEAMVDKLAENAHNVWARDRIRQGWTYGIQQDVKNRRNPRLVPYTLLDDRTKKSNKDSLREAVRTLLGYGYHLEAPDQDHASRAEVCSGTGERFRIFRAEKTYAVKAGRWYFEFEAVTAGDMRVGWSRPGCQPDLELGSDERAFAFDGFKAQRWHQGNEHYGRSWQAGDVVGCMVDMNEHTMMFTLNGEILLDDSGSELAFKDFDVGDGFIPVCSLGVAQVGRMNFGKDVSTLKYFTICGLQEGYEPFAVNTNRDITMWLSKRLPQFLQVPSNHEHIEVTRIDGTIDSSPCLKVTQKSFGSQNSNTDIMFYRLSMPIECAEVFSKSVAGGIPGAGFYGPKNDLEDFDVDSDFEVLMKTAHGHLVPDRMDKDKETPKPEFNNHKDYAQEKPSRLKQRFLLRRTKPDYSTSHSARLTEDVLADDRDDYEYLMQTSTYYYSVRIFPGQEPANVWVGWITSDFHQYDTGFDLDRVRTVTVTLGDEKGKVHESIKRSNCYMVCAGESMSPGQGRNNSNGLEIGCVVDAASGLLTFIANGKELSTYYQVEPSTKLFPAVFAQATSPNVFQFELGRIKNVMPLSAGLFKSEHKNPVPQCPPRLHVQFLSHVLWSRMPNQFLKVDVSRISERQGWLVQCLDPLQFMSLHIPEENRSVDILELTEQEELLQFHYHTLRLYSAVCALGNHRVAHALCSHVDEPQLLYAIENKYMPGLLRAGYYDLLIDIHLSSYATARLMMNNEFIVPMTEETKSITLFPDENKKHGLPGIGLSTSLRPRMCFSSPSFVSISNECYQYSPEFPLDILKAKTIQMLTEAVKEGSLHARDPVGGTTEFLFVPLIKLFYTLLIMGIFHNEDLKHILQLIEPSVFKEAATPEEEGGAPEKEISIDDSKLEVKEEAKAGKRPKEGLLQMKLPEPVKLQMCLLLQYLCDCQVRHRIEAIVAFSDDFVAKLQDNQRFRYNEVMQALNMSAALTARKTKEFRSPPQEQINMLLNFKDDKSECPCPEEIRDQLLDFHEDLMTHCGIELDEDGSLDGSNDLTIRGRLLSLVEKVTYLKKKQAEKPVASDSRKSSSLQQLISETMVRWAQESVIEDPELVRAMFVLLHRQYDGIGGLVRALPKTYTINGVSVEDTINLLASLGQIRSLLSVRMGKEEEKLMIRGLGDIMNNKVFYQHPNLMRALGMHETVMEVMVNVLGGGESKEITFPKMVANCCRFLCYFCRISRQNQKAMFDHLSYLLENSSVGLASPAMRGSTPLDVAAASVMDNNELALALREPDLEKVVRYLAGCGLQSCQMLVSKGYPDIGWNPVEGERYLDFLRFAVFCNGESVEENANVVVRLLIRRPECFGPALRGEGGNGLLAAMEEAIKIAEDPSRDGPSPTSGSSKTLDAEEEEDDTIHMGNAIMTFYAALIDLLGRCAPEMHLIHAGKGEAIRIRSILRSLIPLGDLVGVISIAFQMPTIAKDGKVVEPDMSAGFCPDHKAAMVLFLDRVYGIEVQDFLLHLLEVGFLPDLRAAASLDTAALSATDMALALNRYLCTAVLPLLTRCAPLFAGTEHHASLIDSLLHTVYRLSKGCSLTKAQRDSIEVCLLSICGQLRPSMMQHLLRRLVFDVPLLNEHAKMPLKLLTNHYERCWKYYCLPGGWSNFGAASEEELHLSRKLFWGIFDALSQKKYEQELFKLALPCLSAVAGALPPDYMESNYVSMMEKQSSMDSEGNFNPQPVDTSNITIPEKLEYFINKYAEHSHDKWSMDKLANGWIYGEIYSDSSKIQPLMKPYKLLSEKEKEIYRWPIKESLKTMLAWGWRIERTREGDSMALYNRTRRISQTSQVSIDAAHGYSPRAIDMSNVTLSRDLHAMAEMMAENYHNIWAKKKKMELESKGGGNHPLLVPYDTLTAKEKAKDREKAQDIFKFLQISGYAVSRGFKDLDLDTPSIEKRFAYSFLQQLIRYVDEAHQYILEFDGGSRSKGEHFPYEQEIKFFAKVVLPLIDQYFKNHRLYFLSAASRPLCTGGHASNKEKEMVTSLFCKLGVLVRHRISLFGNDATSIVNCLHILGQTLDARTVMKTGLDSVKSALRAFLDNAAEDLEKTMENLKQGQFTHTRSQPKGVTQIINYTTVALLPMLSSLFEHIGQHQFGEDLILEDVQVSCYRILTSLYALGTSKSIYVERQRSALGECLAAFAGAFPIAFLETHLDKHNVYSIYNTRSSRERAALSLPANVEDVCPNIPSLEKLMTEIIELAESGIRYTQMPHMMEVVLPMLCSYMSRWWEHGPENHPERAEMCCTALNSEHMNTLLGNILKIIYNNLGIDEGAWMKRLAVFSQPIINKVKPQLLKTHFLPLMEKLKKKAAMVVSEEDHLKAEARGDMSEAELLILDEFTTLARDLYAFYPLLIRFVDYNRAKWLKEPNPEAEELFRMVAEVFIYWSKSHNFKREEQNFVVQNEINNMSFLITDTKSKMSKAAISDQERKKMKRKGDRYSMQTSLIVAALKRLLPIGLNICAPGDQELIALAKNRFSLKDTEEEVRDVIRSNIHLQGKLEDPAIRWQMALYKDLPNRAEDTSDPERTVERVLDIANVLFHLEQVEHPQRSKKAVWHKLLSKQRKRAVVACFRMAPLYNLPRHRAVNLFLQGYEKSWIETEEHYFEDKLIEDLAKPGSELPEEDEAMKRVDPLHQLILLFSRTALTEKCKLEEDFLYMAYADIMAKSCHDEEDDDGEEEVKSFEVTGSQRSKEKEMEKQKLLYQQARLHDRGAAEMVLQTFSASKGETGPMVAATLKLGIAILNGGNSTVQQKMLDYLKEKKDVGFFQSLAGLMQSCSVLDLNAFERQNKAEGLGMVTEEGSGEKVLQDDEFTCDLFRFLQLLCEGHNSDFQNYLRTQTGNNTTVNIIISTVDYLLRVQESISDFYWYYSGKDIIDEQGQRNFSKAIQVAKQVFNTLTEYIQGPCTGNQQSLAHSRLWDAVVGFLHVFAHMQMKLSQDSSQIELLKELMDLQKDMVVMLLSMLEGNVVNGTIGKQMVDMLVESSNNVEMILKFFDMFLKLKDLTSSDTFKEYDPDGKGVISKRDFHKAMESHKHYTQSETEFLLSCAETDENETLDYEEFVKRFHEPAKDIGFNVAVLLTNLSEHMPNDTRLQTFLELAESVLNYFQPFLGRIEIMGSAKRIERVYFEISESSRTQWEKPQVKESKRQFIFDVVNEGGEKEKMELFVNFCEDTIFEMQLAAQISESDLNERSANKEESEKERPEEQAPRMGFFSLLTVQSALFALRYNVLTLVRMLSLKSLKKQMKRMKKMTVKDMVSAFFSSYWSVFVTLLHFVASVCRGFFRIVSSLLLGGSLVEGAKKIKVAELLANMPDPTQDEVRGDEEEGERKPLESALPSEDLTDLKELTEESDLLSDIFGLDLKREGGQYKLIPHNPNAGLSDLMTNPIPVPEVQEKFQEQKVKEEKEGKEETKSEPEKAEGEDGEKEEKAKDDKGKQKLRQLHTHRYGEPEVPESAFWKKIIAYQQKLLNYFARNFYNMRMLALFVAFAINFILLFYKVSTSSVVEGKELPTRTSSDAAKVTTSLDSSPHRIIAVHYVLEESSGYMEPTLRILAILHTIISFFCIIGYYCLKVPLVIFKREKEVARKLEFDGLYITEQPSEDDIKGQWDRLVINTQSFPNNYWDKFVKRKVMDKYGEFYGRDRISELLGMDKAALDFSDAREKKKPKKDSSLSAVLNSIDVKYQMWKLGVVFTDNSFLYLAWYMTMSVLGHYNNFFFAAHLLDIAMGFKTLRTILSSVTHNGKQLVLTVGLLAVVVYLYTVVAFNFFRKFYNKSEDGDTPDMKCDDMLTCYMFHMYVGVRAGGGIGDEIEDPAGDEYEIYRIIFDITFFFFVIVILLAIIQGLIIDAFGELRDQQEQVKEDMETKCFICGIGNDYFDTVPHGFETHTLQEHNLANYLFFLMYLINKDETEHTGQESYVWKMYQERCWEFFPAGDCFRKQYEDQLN

[3] = target: T1, RyR2; test: Fluorescent FKBP12.6 binding at the Z-line of permeabilized myocytes; parameters: These fluorescent proteins were added to saponin-permeabilized myocytes with or without pre-equilibration with saturating DPc10 concentration; endogenous in cells; host or cells: saponin-permeabilized rat ventricular myocytes
Procedure: These fluorescent proteins were added to saponin-permeabilized myocytes with or without pre-equilibration with saturating DPc10 concentration. […] We also did this with high [CaM] (500 nmol/L) that saturates RyR2 with CaM under control conditions (without DPc10; FIG. 17C). […] To test whether DPc10 and CaM bind at the same or nearby RyR2 sites, we measured FRET between CaM and DPc10.
FKBP12.6 can bind to and stabilize RyR2 channel gating, but details are controversial (Bers et al., Circ Res. 2012; 110:796-799). We measured the effect of H2O2 on FKBP12.6-RyR2 binding affinity in saponin-permeabilized myocytes using F-FKBP (Yang et al., Circ Res. 2014; 114:295-306; Cornea et al., Proc Natl Acad Sci USA. 2009; 106:6128-6133; Guo et al., Circ Res. 2010; 106:1743-1752; Guo et al., Biophys J. 2011; 101:2170-2177; Cornea et al., J Biol Chem. 2010; 285:19219-19226). […] We used 1 nmol/L F-FKBP (the its Kd) (Guo et al., Circ Res. 2010; 106:1743-1752), because at half-saturation it would be very sensitive to either an increase or decrease in RyR2 binding.
Target sequence in this assay (B0LPN4 whole entry): as above
Target sequence in this assay (P68106 with tags, fused parts or gaps T15C/C23A/C77I partner): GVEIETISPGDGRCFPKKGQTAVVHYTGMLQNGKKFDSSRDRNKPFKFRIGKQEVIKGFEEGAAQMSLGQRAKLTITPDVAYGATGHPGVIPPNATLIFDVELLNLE

[4] = target: T1, RyR2; parameters: These fluorescent proteins were added to saponin-permeabilized myocytes with or without pre-equilibration with saturating DPc10 concentration; endogenous in cells; host or cells: saponin-permeabilized rat ventricular myocytes; details: cited from earlier work
Target sequence in this assay (B0LPN4 whole entry): as the sequence (B0LPN4 whole entry) above
Target sequence in this assay (P68106 with tags, fused parts or gaps T15C/C23A/C77I partner): as the sequence (P68106 with tags, fused parts or gaps T15C/C23A/C77I partner) above

[5] = target: RyR2 (Homo sapiens, UniProt Q92736); details: cited from earlier work
[6] = target: RyR1 (Homo sapiens, UniProt P21817); details: cited from earlier work
[7] = saturation of RyR2 with CaM 1 μmol/L or FKBP12.6 100 nmol/L, F-DPc10 5 μmol/L

Substance: FKBP12.6: FK506-binding protein 12.6
- effect on CaSpF activation by DPc10 [1]: only slightly decreased
- effect on F-DPc10 binding ([2]; 200-minute incubation with F-DPc10, pretreatment CaM 1 μmol/L or FKBP12.6 100 nmol/L): did not alter
- effect on Bmax for F-DPc10 [2, 7]: did not alter
- effect on τwash-in of F-DPc10 [2, 7]: did not alter
- Bmax for FKBP12.6, reanalyzed using FZ-FM [3]: 1.3 µmol/L
- Bmax of FKBP12.6, previous measurements ([4]; cell average fluorescence): ≈ 1 μmol/L
- Kd ([4]; read-out: Kd of FKBP12.6 for RyR2): ~1 nM

Substance: FKBP12: FK506-binding protein isoform FKBP12
- lower affinity than FKBP12.6 [5]: ~100 fold
- lower binding affinity [6]: ~4 fold
